According to IntAct's records for PubMed 16888620:

B1: Serine/threonine-protein kinase Sgk3 (Homo sapiens), Q96BR1 (parent)
chain: MQRDHTMDYKESCPSVSIPSSDEHREKKKRFTVYKVLVSVGRSEWFVFRRYAEFDKLYNTLKKQFPAMALKIPAKRIFGDNFDPDFIKQRRAGLNEFIQNLVRYPELYNHPDVRAFLQMDSPKHQSDPSEDEDERSSQKLHSTSQNINLGPSGNPHAKPTDFDFLKVIGKGSFGKVLLAKRKLDGKFYAVKVLQKKIVLNRKEQKHIMAERNVLLKNVKHPFLVGLHYSFQTTEKLYFVLDFVNGGELFFHLQRERSFPEHRARFYAAEIASALGYLHSIKIVYRDLKPENILLDSVGHVVLTDFGLCKEGIAISDTTTTFCGTPEYLAPEVIRKQPYDNTVDWWCLGAVLYEMLYGLPPFYCRDVAEMYDNILHKPLSLRPGVSLTAWSILEELLEKDRQNRLGAKEDFLEIQNHPFFESLSWADLVQKKIPPPFNPNVAGPDDIRNFDTAFTEETVPYSVCVSSDYSIVNASVLEADDAFVGFSYAPPSEDLFL

Variants of: B1
Details: with itch_human ITCH

effect of a mutation on the interaction	Variant
decreasing interaction	MQRDHTMDYKESCPSVSIPSSDEHREKKKRFTVYKVLVSVGRSEWFVFRRYAEFDKLYNTLKKQFPAMALKIPAKRIFGDNFDPDFIKQRRAGLNEFIQNLVRYPELYNHPDVRAFLQMDSPKHQSDPSEDEDERSSQKLHSTSQNINLGPSGNPHAKPTDFDFLKVIGKGSFGKVLLAKRKLDGKFYAVKVLQKKIVLNRKEQKHIMAERNVLLKNVKHPFLVGLHYSFQTTEKLYFVLDFVNGGELFFHLQRERSFPEHRARFYAAEIASALGYLHSIKIVYRDLKPENILLDSVGHVVLTDFGLCKEGIAISDTTTTFCGTPEYLAPEVIRKQPYDNTVDWWCLGAVLYEMLYGLPPFACRDVAEMYDNILHKPLSLRPGVSLTAWSILEELLEKDRQNRLGAKEDFLEIQNHPFFESLSWADLVQKKIPPPFNPNVAGPDDIRNFDTAFTEETVPYSVCVSSDYSIVNASVLEADDAFVGFSYAPPSEDLFL [Y362A]
